The source of these data is patent CN101407546A (UNIV CHINA PHARMA, dated 2009).

The target of this test is 人肿瘤坏死因子-α (hTNF-α) (human, UniProt P01375 77-233). The test can be described thus: cell-based or functional assay.
人肿瘤坏死因子-α (hTNF-α), sequence (P01375 77-233 limits assumed): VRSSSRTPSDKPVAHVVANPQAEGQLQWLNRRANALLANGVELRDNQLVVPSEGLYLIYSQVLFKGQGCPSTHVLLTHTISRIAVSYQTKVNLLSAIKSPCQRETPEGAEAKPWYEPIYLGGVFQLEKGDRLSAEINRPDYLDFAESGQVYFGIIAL

B1: 全人源抗hTNF-α单链抗体F6 (scFv, V domains shown)
VH: QVQLLQSAAEVKKPGESLKISCKGSGYSFTSYWIGWVRQMPGKGLEWMGIIYPGDSDTRYSPSFQGQVTISADKSISTAYLQWSSLKASDTAVYYCARFCSPWGQGTLVTV
VL: LQSVLTQPPSVSEAPRQRVTISCSGSSSNIGNNAVNWYQQLPGKAPKLLIYYDDLLPSGVSDRFSGSKSGTSASLAISGLQSEDEADYYCAAWDDSLCVFGGGTKLTVLG
Turning to B1, the “对TNF-α诱导的L929细胞毒性的抑制作用 (L929 cytotoxicity neutralisation, MTT) IC50” value is approximately 15 nM.
